B1: DotL(590–783)–DotN–IcmSW–LvgA with the (His)10-MBP tag on DotL(590–783) (complex)
chain 1: VEPPPDDYLMKLQKQLASFQSILESGDLSINKAVENEEITLISKALKESTIVEPIERGVAALIAFHGQNEPEPVEDIVEEEVEGALTIFSKLRIDPNAPPILVADKEVFSEPLLPINETRNQMITIERLAGAKDKYAGTVANELIKDFQIATSYPPEERDVIDVQELTGIIRDLSAKISAEREKANKKAAEELT
chain 2: MADNQQRCELKLIASPGSWRLYSARKIDERFKSYEQKIFQRDRYTCQFCGFQARLYQDIVNLDGDYTNNRLSNLVTACCFCAQCFFVESVGVGGYGGGTLIYLPELTQAELNSLCHVLFCAITNDTGYKSSAQNIYRSFKFRSQIVEEKFGEGTSDPAIFGQLMIDSGVNSEEIREKLFKNIRLLPSRAKFRKQIEKWAASALEEIAD
chain 3: MERDISKCMAKIAASMNAKFYLNDRFVSFDEVFSETGLLPAIAKRADQLCSLCLGYGLGATYDESEGALLGIRVVFDEVTPNVLRLLCMTDVMNELIQGGPSRDYTPLDELMYD
chain 4: MPDLSHEASAKYWFEYLDPMIYRVITFMESVENWTLDGNPELEEAMKQLGQELDDIEKIDLGLLAEEDKFIRIVGNIKSGRGLRLLQAIDTVHPGSASRVLIHAEETSLSSSDPAGFFLKRNIVFERLRLLSRVFCQYRLKLVLRALEGDE
chain 5: MADGDIEIKAGFVDTDLDDRKLTMIDDLNNPLAIVERVYLIWWHWADFHLHVISPHIDTITPAIVIEPELIPGSNDHEFVYSIHDSGSKLSTSKSQDMFSAGMSMCKLFYTIEKMVYILVERLKSGGVSMEAEVQIAFAGHEIAQRKAFESIINLPYNVVVTNFDPGIWGEKYLQNVKRLADKGYGYPPESPRKIYMHPVSSGTTARK
B2: SetA (natural protein)
chain: MYKIYSYLGWRIDMKTENLPQAGQEAQIDKKIHFIWVGHIMPQKNIQVVSEWAEKNPGYETIIWVDKKIAPAKELDLFILDMKSKGITVKDINEEGVCRDSIRHELDQESPNYGMVSDMLRLNILAAEGGIYLDSDILCSAPFPDEIYAPFGFLLSPWSQGANNTLCNDIILCSKGNQIIQQLADAIEQSYIARDSFEFTHEYASMKETKGERIAKTLGVTGPGFLFHQLKKMGILNDKSEMEAIHWELQDQRYLIDGSVKEPDYFYVPQNNTNDASWVPSIKRPGIENMSFQERLENAVQLIAFDIQKTGLFNLDHYANELKVKQNSWCIAAETSPELKPDSYLLIRPRDKTGEWTLYYVDEDKKLNPVTLPVIKGAIKLSEVSDPLRKFHTLLSQVSDPVNPTAHELKQIGRALIELKPRQDEWHCKNKWSGAEEIAQELWQRITSNETLRAQIKQCFTQFESLKPRVAELGLTRASGAGTEVEAHESTVKEQEIISQNTVGEEGTKEKNSVQLASENSSDEKIKTAHDLIDEIIQDVIQLDGKLGLLGGNTRQLEDGRVINIPNGAAMIFDDYKKYKQGELTAESALESMIKIAKLSNQLNRHTFFNQRQPETGQFYKKVAAIDLQTTIAAEYDNNHGLRI

Legend:
VpdB = VpdB (L. pneumophila, UniProt Q5ZW60 1-598); assay: BLI
[1] = target: B1; assay: BLI

Binder	Kd (VpdB) [µM]	koff (VpdB) [s⁻¹]	kon (VpdB) [M⁻¹ s⁻¹]	Kd [1] [µM]	koff [1] [s⁻¹]	kon [1] [M⁻¹ s⁻¹]
B1	~0.332	0.0039	11800	–	–	–
B2	–	–	–	1.6	0.0203	13100

Source: article PMC6497169 (Nature microbiology, 2017)
